Biological target: the molecule itself
Assay: SEC

B1: Csy3, MBP/6xHis-tagged (natural protein, Pseudomonas aeruginosa, UniProt Q02MM1 1-342, looked up)
chain: MSKPILSTASVLAFERKLDPSDALMSAGAWAQRDASQEWPAVTVREKSVRGTISNRLKTKDRDPAKLDASIQSPNLQTVDVANLPSDADTLKVRFTLRVLGGAGTPSACNDAAYRDKLLQTVATYVNDQGFAELARRYAHNLANARFLWRNRVGAEAVEVRINHIRQGEVARAWRFDALAIGLRDFKADAELDALAELIASGLSGSGHVLLEVVAFARIGDGQEVFPSQELILDKGDKKGQKSKTLYSVRDAAAIHSQKIGNALRTIDTWYPDEDGLGPIAVEPYGSVTSQGKAYRQPKQKLDFYTLLDNWVLRDEAPAVEQQHYVIANLIRGGVFGEAEEK
**Q.** Does B1 bind?
**A.** binds

— paper PMC4935067 (Nature, 2015)
